T1: ScWpl1^259–647 D271A D272A (S. cerevisiae, UniProt Q99359 259-647, D271A | D272A)
T1 sequence (looked up): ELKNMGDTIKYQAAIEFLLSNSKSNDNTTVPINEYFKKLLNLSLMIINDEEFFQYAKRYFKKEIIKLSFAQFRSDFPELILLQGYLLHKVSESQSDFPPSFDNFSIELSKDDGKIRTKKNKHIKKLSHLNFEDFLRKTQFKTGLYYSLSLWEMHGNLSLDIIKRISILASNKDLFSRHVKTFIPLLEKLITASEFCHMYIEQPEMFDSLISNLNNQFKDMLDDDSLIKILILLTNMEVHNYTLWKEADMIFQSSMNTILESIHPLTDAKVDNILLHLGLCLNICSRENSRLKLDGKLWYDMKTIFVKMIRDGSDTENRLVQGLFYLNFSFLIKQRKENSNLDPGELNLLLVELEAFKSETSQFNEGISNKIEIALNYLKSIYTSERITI

T2: ScWpl1^259–647 N493E N622E (S. cerevisiae, UniProt Q99359 259-647, N493E | N622E)
T2 sequence (looked up): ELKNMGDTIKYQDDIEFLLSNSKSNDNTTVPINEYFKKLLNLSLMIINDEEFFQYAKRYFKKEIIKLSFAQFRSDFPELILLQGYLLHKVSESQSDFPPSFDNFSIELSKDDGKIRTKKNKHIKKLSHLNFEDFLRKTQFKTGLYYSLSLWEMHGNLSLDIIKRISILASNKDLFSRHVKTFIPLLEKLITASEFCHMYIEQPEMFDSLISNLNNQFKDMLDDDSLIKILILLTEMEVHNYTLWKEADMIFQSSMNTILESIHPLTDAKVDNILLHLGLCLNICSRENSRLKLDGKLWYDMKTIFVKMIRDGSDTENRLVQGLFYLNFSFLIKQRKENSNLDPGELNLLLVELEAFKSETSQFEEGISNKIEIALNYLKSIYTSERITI

T3: ScWpl1^259–647 (Wapl domain of Saccharomyces cerevisiae Wpl1), wild type (S. cerevisiae, UniProt Q99359 259-647)
T3 sequence (looked up): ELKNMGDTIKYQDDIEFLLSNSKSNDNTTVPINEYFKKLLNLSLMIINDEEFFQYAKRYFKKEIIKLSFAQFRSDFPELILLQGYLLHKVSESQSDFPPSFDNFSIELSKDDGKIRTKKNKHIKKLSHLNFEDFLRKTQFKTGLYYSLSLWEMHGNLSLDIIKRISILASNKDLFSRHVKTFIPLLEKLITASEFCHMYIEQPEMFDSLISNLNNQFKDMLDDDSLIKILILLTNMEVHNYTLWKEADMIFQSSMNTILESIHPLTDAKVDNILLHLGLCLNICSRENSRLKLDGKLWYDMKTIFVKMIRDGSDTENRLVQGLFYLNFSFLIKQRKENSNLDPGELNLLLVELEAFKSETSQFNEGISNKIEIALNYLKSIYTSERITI

T4: ScWpl1^259–647 N493A N622A L532E (S. cerevisiae, UniProt Q99359 259-647, N493A | N622A | L532E)
T4 sequence (looked up): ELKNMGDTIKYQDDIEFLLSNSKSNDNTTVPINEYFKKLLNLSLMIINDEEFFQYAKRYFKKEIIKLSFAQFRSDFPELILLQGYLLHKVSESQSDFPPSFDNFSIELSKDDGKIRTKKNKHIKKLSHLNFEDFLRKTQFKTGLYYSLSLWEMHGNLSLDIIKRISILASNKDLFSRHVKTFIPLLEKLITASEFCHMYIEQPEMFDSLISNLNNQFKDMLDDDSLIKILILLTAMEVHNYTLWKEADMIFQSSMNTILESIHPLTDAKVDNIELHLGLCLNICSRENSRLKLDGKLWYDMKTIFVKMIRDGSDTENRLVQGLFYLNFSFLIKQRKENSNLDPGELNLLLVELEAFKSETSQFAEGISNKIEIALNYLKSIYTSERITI

T5: ScWpl1^259–647 N493A N622A L577R (S. cerevisiae, UniProt Q99359 259-647, N493A | N622A | L577R)
T5 sequence (looked up): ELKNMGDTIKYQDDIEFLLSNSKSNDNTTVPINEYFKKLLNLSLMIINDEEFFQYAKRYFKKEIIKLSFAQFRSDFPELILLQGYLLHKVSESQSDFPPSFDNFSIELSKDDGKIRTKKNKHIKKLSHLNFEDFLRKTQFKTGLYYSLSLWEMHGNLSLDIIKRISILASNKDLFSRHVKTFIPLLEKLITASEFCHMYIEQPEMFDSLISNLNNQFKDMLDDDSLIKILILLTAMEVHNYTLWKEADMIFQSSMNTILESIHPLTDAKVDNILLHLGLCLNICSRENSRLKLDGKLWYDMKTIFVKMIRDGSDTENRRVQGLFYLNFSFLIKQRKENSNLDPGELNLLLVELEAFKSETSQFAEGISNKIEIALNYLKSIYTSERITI

T6: ScWpl1^259–647 K376Q K377Q K382Q K383Q (S. cerevisiae, UniProt Q99359 259-647, K376Q | K377Q | K382Q | K383Q)
T6 sequence (looked up): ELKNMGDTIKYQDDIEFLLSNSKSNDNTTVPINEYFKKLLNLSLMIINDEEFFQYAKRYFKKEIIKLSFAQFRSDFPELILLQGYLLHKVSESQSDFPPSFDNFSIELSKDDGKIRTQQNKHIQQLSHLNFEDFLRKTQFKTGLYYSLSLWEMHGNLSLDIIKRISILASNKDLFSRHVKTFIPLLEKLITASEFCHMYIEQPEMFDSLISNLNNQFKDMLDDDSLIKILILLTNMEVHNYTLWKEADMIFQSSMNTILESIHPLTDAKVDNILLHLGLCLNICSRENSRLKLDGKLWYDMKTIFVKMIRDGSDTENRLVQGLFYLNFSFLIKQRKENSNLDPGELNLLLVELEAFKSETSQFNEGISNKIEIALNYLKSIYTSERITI


Key:
Assay in all cases: BLI
[1] = biological target: T1, ScWpl1^259–647 D271A D272A
[2] = biological target: T2, ScWpl1^259–647 N493E N622E
[3] = biological target: T3, ScWpl1^259–647 (Wapl domain of …)
[4] = biological target: T4, ScWpl1^259–647 N493A N622A L532E
[5] = biological target: T5, ScWpl1^259–647 N493A N622A L577R
[6] = biological target: T6, ScWpl1^259–647 K376Q K377Q K382Q K383Q

Binder | Kd [1] | koff [1] | kon [1] | Kd [2] | koff [2] | kon [2] | Kd [3] | koff [3] | kon [3] | Kd [4] | koff [4] | kon [4] | Kd [5] | koff [5] | kon [5] | Kd [6] | koff [6] | kon [6]
GST-tagged ScSmc3 ATPase head (ScSmc3^AH), wild type (domain or fragment, S. cerevisiae) MYIKRVIIKGFKTYRNETIIDNFSPHQNVIIGSNGSGKSNFFAAIRFVLSDDYSNLKREERQGLIHQGSGGSVMSASVEIVFHDPDHSMILPSGVLSRGDDEVTIRRTVGLKKDDYQLNDRNVTKGDIVRMLETAGFSMNNPYNIVPQGKIVALTNAKDKERLQLLEDVVGAKSFEVKLKASLKKMEETESGGSGGKVSENFEAVFERLVPRGTAKLIIHRKNDNANDHDESIDVDMDAESNESQNGKDSEIMYTGVSISVSFNSKQNEQLHVEQLSGGQKTVCAIALILAIQMVDPASFYLFDEIDAALDKQYRTAVATLLKELSKNAQFICTTFRTDMLQVADKFFRVKYENKISTVIEVNREEAIGFIRGSNKFAEV | 167 nM | 0.000395 s⁻¹ | 2370 M⁻¹ s⁻¹ | 126 nM | 0.000492 s⁻¹ | 3920 M⁻¹ s⁻¹ | 47 nM | 0.000248 s⁻¹ | 5220 M⁻¹ s⁻¹ | 82 nM | 0.000344 s⁻¹ | 4200 M⁻¹ s⁻¹ | 77 nM | 0.000428 s⁻¹ | 5540 M⁻¹ s⁻¹ | 200 nM | 0.00056 s⁻¹ | 2800 M⁻¹ s⁻¹
GST-tagged ScSmc3^AH L163A L166A D168A (domain or fragment, S. cerevisiae) MYIKRVIIKGFKTYRNETIIDNFSPHQNVIIGSNGSGKSNFFAAIRFVLSDDYSNLKREERQGLIHQGSGGSVMSASVEIVFHDPDHSMILPSGVLSRGDDEVTIRRTVGLKKDDYQLNDRNVTKGDIVRMLETAGFSMNNPYNIVPQGKIVALTNAKDKERAQLAEAVVGAKSFEVKLKASLKKMEETESGGSGGKVSENFEAVFERLVPRGTAKLIIHRKNDNANDHDESIDVDMDAESNESQNGKDSEIMYTGVSISVSFNSKQNEQLHVEQLSGGQKTVCAIALILAIQMVDPASFYLFDEIDAALDKQYRTAVATLLKELSKNAQFICTTFRTDMLQVADKFFRVKYENKISTVIEVNREEAIGFIRGSNKFAEV | – | – | – | – | – | – | 104 nM | 0.000497 s⁻¹ | 4770 M⁻¹ s⁻¹ | – | – | – | – | – | – | – | – | –

Further binders by falling Kd [3], results first:

Kd [1] | koff [1] | kon [1] | Kd [2] | koff [2] | kon [2] | Kd [3] | koff [3] | kon [3] | Kd [4] | koff [4] | kon [4] | Kd [5] | koff [5] | kon [5] | Kd [6] | koff [6] | kon [6] | Binder
– | – | – | – | – | – | 102 nM | 0.000597 s⁻¹ | 5880 M⁻¹ s⁻¹ | – | – | – | – | – | – | – | – | – | GST-tagged ScSmc3^AH L163D L166D (domain or fragment, S. cerevisiae) MYIKRVIIKGFKTYRNETIIDNFSPHQNVIIGSNGSGKSNFFAAIRFVLSDDYSNLKREERQGLIHQGSGGSVMSASVEIVFHDPDHSMILPSGVLSRGDDEVTIRRTVGLKKDDYQLNDRNVTKGDIVRMLETAGFSMNNPYNIVPQGKIVALTNAKDKERDQLDEDVVGAKSFEVKLKASLKKMEETESGGSGGKVSENFEAVFERLVPRGTAKLIIHRKNDNANDHDESIDVDMDAESNESQNGKDSEIMYTGVSISVSFNSKQNEQLHVEQLSGGQKTVCAIALILAIQMVDPASFYLFDEIDAALDKQYRTAVATLLKELSKNAQFICTTFRTDMLQVADKFFRVKYENKISTVIEVNREEAIGFIRGSNKFAEV
– | – | – | – | – | – | 88 nM | 0.000431 s⁻¹ | 4880 M⁻¹ s⁻¹ | – | – | – | – | – | – | – | – | – | GST-tagged ScSmc3^AH K112N K113N (domain or fragment, S. cerevisiae) MYIKRVIIKGFKTYRNETIIDNFSPHQNVIIGSNGSGKSNFFAAIRFVLSDDYSNLKREERQGLIHQGSGGSVMSASVEIVFHDPDHSMILPSGVLSRGDDEVTIRRTVGLNNDDYQLNDRNVTKGDIVRMLETAGFSMNNPYNIVPQGKIVALTNAKDKERLQLLEDVVGAKSFEVKLKASLKKMEETESGGSGGKVSENFEAVFERLVPRGTAKLIIHRKNDNANDHDESIDVDMDAESNESQNGKDSEIMYTGVSISVSFNSKQNEQLHVEQLSGGQKTVCAIALILAIQMVDPASFYLFDEIDAALDKQYRTAVATLLKELSKNAQFICTTFRTDMLQVADKFFRVKYENKISTVIEVNREEAIGFIRGSNKFAEV

Reference: article PMC3590988 (The EMBO Journal, 2013)
